Measured values as given in patent publication US20220144957A1 (IMMUNECENT BIOTECHNOLOGY, published 2022).
Like-named read-outs stand apart in the source and are kept apart here. One block for each binder: values may come before it.

Experiments:
Human IFNAR1 SD1-SD4 = molecular target: T1, Human IFNAR1 SD1-SD4 (human, UniProt P17181 28-436, limits assumed); test: SPR (Biacore 8K), antibody captured on anti-human IgG Fc, antigen injected
T1 construct: domain: SD1-SD4; Antigen injected in the Biacore assay
T1 sequence (looked up): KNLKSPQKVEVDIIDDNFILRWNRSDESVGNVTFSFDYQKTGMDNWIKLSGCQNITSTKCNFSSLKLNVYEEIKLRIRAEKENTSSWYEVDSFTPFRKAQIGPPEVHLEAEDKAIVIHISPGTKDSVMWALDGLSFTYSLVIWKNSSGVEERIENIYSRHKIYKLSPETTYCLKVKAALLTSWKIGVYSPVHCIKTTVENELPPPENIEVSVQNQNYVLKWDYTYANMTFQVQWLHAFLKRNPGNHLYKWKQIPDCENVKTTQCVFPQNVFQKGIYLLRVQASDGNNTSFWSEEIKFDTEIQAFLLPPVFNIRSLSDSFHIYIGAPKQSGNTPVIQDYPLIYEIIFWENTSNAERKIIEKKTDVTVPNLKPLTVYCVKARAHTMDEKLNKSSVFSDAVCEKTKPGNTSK
Experimental: Preparation of a CM5 chip surface: Using HBS-EP+ (10 mM HEPES, 150 mM NaCl, 3 mM EDTA, 0.05% surfactant P20) as running buffer, both channel 1&2 of a CM5 sensor chip (GE Healthcare, BR-1000-30) were activated with a fresh mixture of 50 mM NHS and 200 mM EDC (1:1). Anti-human IgG Fc, 20 μg/ml in 10 mM NaOAc buffer (pH 5.0), was then passed over the activated surface of the two flow cells in each channel at 10 l/min (target around 10000 RU). […] Low flow rate was maintained over 2 hours for the equilibrium of the immobilized protein.
Measurement of binding kinetics: Each antibody was captured in flow cell FC2 in channel 1&2 around 250 RU respectively, using FC1 as the reference cell, followed by injection of antigen samples at varying concentrations. The signals with captured antibody subtracted from that without captured antibody were calculated with Biacore 8K evaluation software. The running buffer was HBS-EP+(10 mM HEPES, 150 mM NaCl, 3 mM EDTA, 0.05% surfactant P20).

human IFNAR1 ECD = molecular target: T2, human IFNAR1 ECD (human, UniProt P17181 28-436); test: ELISA, plate coated with human IFNAR1 ECD, anti-human IgG Fc-peroxidase, OD450
T2 construct: extracellular domain; Coated on ELISA plates at 5 ug/ml
T2 sequence (looked up): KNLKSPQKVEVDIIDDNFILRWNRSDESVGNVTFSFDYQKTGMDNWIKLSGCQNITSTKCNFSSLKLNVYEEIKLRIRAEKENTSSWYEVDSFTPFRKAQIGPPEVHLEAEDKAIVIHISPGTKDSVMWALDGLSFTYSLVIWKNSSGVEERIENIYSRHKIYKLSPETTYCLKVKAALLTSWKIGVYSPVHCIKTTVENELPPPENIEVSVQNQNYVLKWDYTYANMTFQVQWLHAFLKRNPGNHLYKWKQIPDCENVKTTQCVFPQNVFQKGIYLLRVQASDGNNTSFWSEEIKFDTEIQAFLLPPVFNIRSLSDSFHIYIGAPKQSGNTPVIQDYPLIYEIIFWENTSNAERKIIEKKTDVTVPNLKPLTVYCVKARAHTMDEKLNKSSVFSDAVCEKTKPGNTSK
Experimental: 96-well plates were coated with 100ul 5 ug/ml human IFNAR1 ECD in 1×PBS and incubate at 4° C. overnight. The plates were then washed with PBST (1×PBS+0.05% Tween20) for 3 times and blocked with the blocking buffer (1×PBS+0.05% Tween20+1% BSA) at RT for 2 hr. […] The plates were washed with PBST for 3 times, followed by addition of antibody (Anti-Human IgG (Fc specific)-Peroxidase antibody produced in goat, ZSGB-BIO) at 100ul/well and then incubated at RT for 1 hr. The plates were washed with PBST 5 times and then 100ul/well TMB was added and after 15 minutes, the plates were quenched with 50ul/well 2N H₂SO₄. The plates were read with Molecular device spectra max at 450 nm.

[1] = molecular target: T3, human IFNAR1, full length (IFNAR1-aa1-557) (human, UniProt P17181 28-557); test: flow cytometry on cells expressing human IFNAR1, MFI of PE
T3 construct: whole, on cells; Overexpressed on HEK293T cells from pIRES2-EGFP-IFNAR1; also used here for the human IFNAR1 of the IFN-I reporter cells and the cells of the virus assays; also called IFNAR1-WT; wild type IFNAR1
T3 sequence (looked up): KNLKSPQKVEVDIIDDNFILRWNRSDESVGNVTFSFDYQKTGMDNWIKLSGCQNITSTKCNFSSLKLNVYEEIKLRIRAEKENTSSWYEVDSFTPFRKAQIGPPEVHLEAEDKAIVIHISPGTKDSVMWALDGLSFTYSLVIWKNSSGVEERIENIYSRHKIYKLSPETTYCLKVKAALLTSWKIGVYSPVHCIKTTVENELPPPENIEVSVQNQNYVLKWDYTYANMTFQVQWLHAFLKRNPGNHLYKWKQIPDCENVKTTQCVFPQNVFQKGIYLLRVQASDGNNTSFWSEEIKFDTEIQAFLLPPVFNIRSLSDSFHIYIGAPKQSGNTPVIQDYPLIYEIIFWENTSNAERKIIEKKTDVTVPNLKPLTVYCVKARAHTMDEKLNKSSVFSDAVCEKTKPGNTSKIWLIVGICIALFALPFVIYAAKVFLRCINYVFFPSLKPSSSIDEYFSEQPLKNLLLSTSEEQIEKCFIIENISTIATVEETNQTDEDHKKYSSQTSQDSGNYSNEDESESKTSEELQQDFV

[2] = molecular target: T3, human IFNAR1, full length …; test: as above; remark: listed apart in the source
[3] = molecular target: T4, human IFNAR1, full length (IFNAR1-aa1-557) (human) (UniProt P17181); test: cell-based or functional assay
T4 sequence (looked up): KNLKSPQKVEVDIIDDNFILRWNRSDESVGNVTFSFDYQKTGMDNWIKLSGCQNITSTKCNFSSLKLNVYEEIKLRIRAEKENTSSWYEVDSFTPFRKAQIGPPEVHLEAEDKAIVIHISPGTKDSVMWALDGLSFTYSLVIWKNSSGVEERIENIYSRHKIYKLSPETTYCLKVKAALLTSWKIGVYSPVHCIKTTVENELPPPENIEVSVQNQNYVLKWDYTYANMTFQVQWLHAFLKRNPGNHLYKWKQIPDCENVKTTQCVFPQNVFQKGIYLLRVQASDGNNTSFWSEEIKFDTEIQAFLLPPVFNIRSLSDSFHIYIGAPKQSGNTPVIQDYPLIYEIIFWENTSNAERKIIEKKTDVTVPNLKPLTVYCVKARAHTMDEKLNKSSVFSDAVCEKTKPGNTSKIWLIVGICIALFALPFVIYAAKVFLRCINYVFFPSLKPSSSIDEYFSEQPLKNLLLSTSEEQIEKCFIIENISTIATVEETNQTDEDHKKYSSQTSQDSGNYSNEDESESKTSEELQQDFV

Kd (Human IFNAR1 SD1-SD4): 0.671 nM | koff (Human IFNAR1 SD1-SD4): 0.000301 s⁻¹ | kon (Human IFNAR1 SD1-SD4): 449000 M⁻¹ s⁻¹ | EC50 (human IFNAR1 ECD): 3.27 ng/mL | Top (human IFNAR1 ECD): 3.4 OD450 | EC50 (read off the curve) [1]: ~40 ng/mL
B1: Hu4-13 (antibody, V domains shown)
VH: QVQLVQSGAEVKKPGASVKVSCKASGYTFTSYWMNWVRQAPGQGLEWMGKIDPSDSETHFNQKFRDRVTMTRDTSTSTVYMELSSLRSEDTAVYYCARGGRISFDYDAALDYWGQGTLVTVSS
VL: DIQMTQSPSSLSASVGDRVTITCKSSEVIYNRLAWYQQKPGNAPKLLISGATTLESGVPSRFSGSGSGKDYTLTISSLQPEDFATYYCQQYWNKPFTFGQGTKLEIK
notes: Humanized 7G4 variant

Kd (Human IFNAR1 SD1-SD4): 0.466 nM | koff (Human IFNAR1 SD1-SD4): 0.00021 s⁻¹ | kon (Human IFNAR1 SD1-SD4): 451000 M⁻¹ s⁻¹ | EC50 (human IFNAR1 ECD): 3.15 ng/mL | Top (human IFNAR1 ECD): 3.31 OD450
B2: Hu4-16 (antibody, V domains shown)
VH: QVQLVQSGAEVKKPGASVKVSCKASGYTFTSYWMNWVRQRPGQGLEWIGKIDPSDSETHFNQKFRDRVTLTVDKSTSTVYMELSSLRSEDTAVYYCARGGRISFDYDAALDYWGQGTLVTVSS
VL: DIQMTQSPSSLSASVGDRVTITCKSSEVIYNRLAWYQQKPGNAPKLLISGATTLESGVPSRFSGSGSGKDYTLTISSLQPEDFATYYCQQYWNKPFTFGQGTKLEIK
notes: Humanized 7G4 variant

Kd (Human IFNAR1 SD1-SD4): 0.442 nM | koff (Human IFNAR1 SD1-SD4): 0.000209 s⁻¹ | kon (Human IFNAR1 SD1-SD4): 472000 M⁻¹ s⁻¹ | EC50 (human IFNAR1 ECD): 2.84 ng/mL | Top (human IFNAR1 ECD): 3.46 OD450
B3: Hu4-15 (antibody, V domains shown)
VH: QVQLVQSGAEVKKPGASVKVSCKASGYTFTSYWMNWVRQAPGQGLEWIGKIDPSDSETHFNQKFRDRVTLTVDKSTSTVYMELSSLRSEDTAVYYCARGGRISFDYDAALDYWGQGTLVTVSS
VL: DIQMTQSPSSLSASVGDRVTITCKSSEVIYNRLAWYQQKPGNAPKLLISGATTLESGVPSRFSGSGSGKDYTLTISSLQPEDFATYYCQQYWNKPFTFGQGTKLEIK
notes: Humanized 7G4 variant

Kd (Human IFNAR1 SD1-SD4): 0.633 nM | koff (Human IFNAR1 SD1-SD4): 0.000281 s⁻¹ | kon (Human IFNAR1 SD1-SD4): 444000 M⁻¹ s⁻¹ | EC50 (read off the curve) [2]: ~60 ng/mL | EC50 (human IFNAR1 ECD): 3.21 ng/mL | Top (human IFNAR1 ECD): 3.35 OD450 | EC50 (read off the curve) [1]: ~40 ng/mL
B4: Hu4-6 (antibody, V domains shown)
VH: QVQLVQSGAEVKKPGASVKVSCKASGYTFTSYWMNWVRQAPGQGLEWMGKIDPSDSETHFNQKFRDRVTLTVDKSTSTVYMELSSLRSEDTAVYYCARGGRISFDYDAALDYWGQGTLVTVSS
VL: DIQMTQSPSSLSASVGDRVTITCKSSEVIYNRLAWYQQKPGKAPKLLIYGATTLESGVPSRFSGSGSGKDYTLTISSLQPEDFATYYCQQYWNKPFTFGQGTKLEIK
notes: Humanized 7G4 variant

blocking effect on GFP expression induced by IFNα1 in IFN-I reporter cells (++ = greater than 80%) [3]: > 80% | blocking effect on GFP expression induced by IFNα2a in IFN-I reporter cells (++ = greater than 80%) [3]: > 80% | blocking effect on GFP expression induced by IFNα2b in IFN-I reporter cells (++ = greater than 80%) [3]: > 80% | blocking effect on GFP expression induced by IFNα4 in IFN-I reporter cells (++ = greater than 80%) [3]: > 80% | blocking effect on GFP expression induced by IFNα5 in IFN-I reporter cells (++ = greater than 80%) [3]: > 80% | blocking effect on GFP expression induced by IFNα6 in IFN-I reporter cells (++ = greater than 80%) [3]: > 80% | blocking effect on GFP expression induced by IFNα7 in IFN-I reporter cells (++ = greater than 80%) [3]: > 80% | blocking effect on GFP expression induced by IFNα8 in IFN-I reporter cells (++ = greater than 80%) [3]: > 80% | blocking effect on GFP expression induced by IFNα10 in IFN-I reporter cells (++ = greater than 80%) [3]: > 80% | blocking effect on GFP expression induced by IFNα14 in IFN-I reporter cells (++ = greater than 80%) [3]: > 80% | blocking effect on GFP expression induced by IFNα16 in IFN-I reporter cells (++ = greater than 80%) [3]: > 80% | blocking effect on GFP expression induced by IFNα17 in IFN-I reporter cells (++ = greater than 80%) [3]: > 80% | blocking effect on GFP expression induced by IFNα21 in IFN-I reporter cells (++ = greater than 80%) [3]: > 80% | blocking effect on GFP expression induced by IFNω in IFN-I reporter cells (++ = greater than 80%) [3]: > 80%
B5: IFNAR1 monoclonal antibody 10C9 (antibody, from another filing, V domains shown)
VH: QIQLVQSGPELKKPGETVKISCKASGYTFTNYGVNWMKQAPGKGLKWMGWINTYTGEPTYADDFKGRFAFSLETSASTAYLQINNLKNEDTATYFCAREGVYYYGDWAWLAYWGQGTLVTVSA
VL: DIVMTQSQKFISTSVGDRVSVTCKASQNVGTNVAWYQQKPGQSPKTLIYSTSYRYNGVPDRFTGSGSGTDFTLTISNVQSEDLAEYFCQQYNSYYTFGGGTKLEIK

blocking effect on GFP expression induced by IFNα1 in IFN-I reporter cells (++ = greater than 80%) [3]: > 80% | blocking effect on GFP expression induced by IFNα2a in IFN-I reporter cells (++ = greater than 80%) [3]: > 80% | blocking effect on GFP expression induced by IFNα2b in IFN-I reporter cells (++ = greater than 80%) [3]: > 80% | blocking effect on GFP expression induced by IFNα4 in IFN-I reporter cells (++ = greater than 80%) [3]: > 80% | blocking effect on GFP expression induced by IFNα5 in IFN-I reporter cells (++ = greater than 80%) [3]: > 80% | blocking effect on GFP expression induced by IFNα6 in IFN-I reporter cells (++ = greater than 80%) [3]: > 80% | blocking effect on GFP expression induced by IFNα7 in IFN-I reporter cells (++ = greater than 80%) [3]: > 80% | blocking effect on GFP expression induced by IFNα8 in IFN-I reporter cells (++ = greater than 80%) [3]: > 80% | blocking effect on GFP expression induced by IFNα10 in IFN-I reporter cells (++ = greater than 80%) [3]: > 80% | blocking effect on GFP expression induced by IFNα14 in IFN-I reporter cells (++ = greater than 80%) [3]: > 80% | blocking effect on GFP expression induced by IFNα16 in IFN-I reporter cells (++ = greater than 80%) [3]: > 80% | blocking effect on GFP expression induced by IFNα17 in IFN-I reporter cells (++ = greater than 80%) [3]: > 80% | blocking effect on GFP expression induced by IFNα21 in IFN-I reporter cells (++ = greater than 80%) [3]: > 80% | blocking effect on GFP expression induced by IFNω in IFN-I reporter cells (++ = greater than 80%) [3]: > 80% | fold decrease in percentage of GFP positive reporter cells with serum from SLE patients [3]: 3 fold | percentage of GFP positive reporter cells with human IFNβ and 10 µg/mL antibody [3]: 20%
B6: IFNAR1 monoclonal antibody 10C2 (antibody, from another filing, V domains shown)
VH: QIQLVQSGPELKKPGETVKISCKASGYTFTNYGMNWVKQAPGKGLKWMGWINTYTGEPTYSDDFKGRFAFSLETSASTANLQINNLKDEDAATYFCAREGAIYYGDYVYFGVWGAGTTVTVSS
VL: DIVMTQSQKFMSTSVGDRVSITCKASQNVGTAVAWYQEKPGQSPKLLIYSASNRYTGVPDRFTGSGSGTAFTLTISNMQSEDLADYFCQQYYNYPLTFGAGTKLEVKR

Kd (Human IFNAR1 SD1-SD4): 0.765 nM | koff (Human IFNAR1 SD1-SD4): 0.000349 s⁻¹ | kon (Human IFNAR1 SD1-SD4): 456000 M⁻¹ s⁻¹ | EC50 (human IFNAR1 ECD): 4.65 ng/mL | Top (human IFNAR1 ECD): 3.27 OD450 | EC50 (read off the curve) [1]: ~40 ng/mL
B7: 7G4 Chimeric (antibody, V domains shown)
VH: QVQLQQPGAELVKPGAPVKLSCKASGYTFTSYWMNWVRQRPGRGLEWIGKIDPSDSETHFNQKFRDKATLTVDKSSTTAYIQLSSLTSEDSAVYYCARGGRISFDYDAALDYWGQGTSVTVSS
VL: DILMTQSSSSFSVSLGDRVTITCKSSEVIYNRLAWFQQKPGNAPRLLISGATTLESGFPSRFSGSGSGKDYTLSITSLQIEDVSTYYCQQYWNKPFTFGSGTKLEVK
